Measurements taken from PMC3545873.

Key:
[1] = target: StrepTag II; conditions: cited from earlier work
[2] = target: StrepTactin; experiment: optical tweezers (single-molecule pulling); STN covalently coupled to polystyrene beads; tST-DNA-biotin held by its biotin on NTV-coated beads; tST-STN linkage formed in situ; stretched and relaxed at 50 nm/s to just beyond DNA overstretching at about 65 pN until the connection broke; connections that broke below 20 pN disregarded; N = 111

average rupture force [2] [pN] | Substance | Kd [1] [µM] | fraction of times the tether survives overstretching (first pull) [2] [%] | fraction of times the tether survives overstretching (subsequent pulls) [2] [%]
– | Streptavidin (from UniProt P22629) | 72 | – | –
> 65 | tST-DNA-biotin (tandem of two StrepTag II peptides linked to 2553 bp dsDNA, biotinylated at the other DNA end) | – | 77 | 87
